Assay results taken from a protein production outcome set (Wang et al. 2014).

Test: label from the status in PepcDB records

Sequence | protein production
MRIIFKIIAFLSFFAFLSGCGAGLTAFSKGERLEREGKLDEAVIKYSEAVASNPEMNEYRMRLLKTSEEAALRHLSKGDEFIALKNYDAALVEYQAAVALDPSLQRAKQESDKLVRQKNSRTYFKEGQDFERGNKPREALQAYRKALDLDGQNKEAKEALERLLSTKKTRLEGYELNLKSTKPITLKFKDANLKDVFYIVTQLSGINFIFDDTIKDQKVTIYLENANFQQALDLLTNMNKLGKKVLNESTILIFPKTPEKSKQYEDLVVKTFFLNTLDAKKAVNLLRTMLQVRKVYVNEELNAIVVRDTSELVDVAGKILEANDVPDAEVLLDVEVIEVSKRNIENFGLALSKYAVSLNTQTPGGGFLNDTFSRASVSSSTGTTIQGTAGSELLQTFSWNGYSGFMTVPSASYSFGKSITNAEVLANPKIRVKNREKSKFTVGTRVPITTTSTTGTTGGFSVNVQYVDVGVKLNAEPTIMLNNEVSIKLGLEVSSIIDKQTVGGTDSATTVVTIGTRNLDTVLNLKDGETSVIGGLIEDNKQKGKQKIFLLGDIPIIGPLLSNNSNDNQKRELILAITPRLVRSVTVPEPDLVSFWSGKEDDPSVVKPFASFELEPEFAIGQPKTVKQPAASPAPVPASVSAPAQRVAPLQPVPGSPAPTAAPQTTTSPEVKQSAAPAPGQQPAPPSTAQSQAVAPLPVPASPAAPAATVAAASAVPVAAAPAPAVRGSLNISAPAAVNLGSQFKVEIRVSDVKGLLKAPFVLIYDPIFIDYVGAVEGTFLNRDGKPTSFNAQVDKAKGRVTITLARTGAEGIDGAGSLLTATFTAKNKGPASLGLQSVNFTDQANKPIDVVPYNTVVEVK | failed
MRILAIVKRIVNQFRRDKRTLALMFLAPLLLITLLTYLFEGDTVKPVVGVNGLSSSMVKELKENDLTIKTYPDNTNATAKIKDADLDAFFQQDGEKIKVTYENSEPSLSKEIGLKLQKALMAEQQVQVKKQAKTTGEALAKAGIDPNSLPALTNSPEKLTISTDYVYGDKDTSFFDTISPIFIGFFVFFFVFLIAGISFLRERTTGTLERLMATPIKRIELELGYLIGFGIFALLQSILVAVFSIQVLGMMQNGSLFYVLLITLTLGMVSLALGILLSTFANNEFQIVQFIPIVIVPQVLFCGIFPLDGMADWLVWIAHIMPLYYGANALTSIMVKGEGFASFANDFYILLGFVIIFVVLNIFALKKYRKV | failed
MRILLVGAGGFVGRHLLPALLAAGHELLLTARRPPVDAPAGVRWLALDLERLAERPDSFAWPAGVDLLINAAGTMSLDEASMARVQDSGARTLFDLAAAHGAKVLQISALGAGAHPDVAFLASKAAADRHLLELGIPALVLRPSLLLGPGGASSAWLERLSPLPLIPLLDNRARLQPLHVEDLVGAVLALLRCWPERAQVIPLVGPQALTQGELLDELRRAQGWPRGRYVVPPAALLDALGGLGRRAGWRTLSPSMLKLVRHDNLADPALLDEACGYRCAPLASRLLGWPQAARSLAALMRPLMLAALVLIWLGTLVACLGPGYGWGLRILGEAGIHGWPASLAVIAGALLDGALGVGLLLRRWRRRALLAQFWLMLGYSLAISLILPHYWYDPYMAVGKNIVLMVATLWLLGDEPRTREARG | failed
MRITASLRTFCHLSTPHSDSTTSRLWIDEVTAVARQRDRDSFMRIYDHFAPRLLRYLTGLNVPEGQAEELVQEVLLKLWHKAESFDPSKASLGTWLFRIARNLYIDSVRKDRGWVQVQNSLEQLERLEAPVDRTLDYSQRQEQQLNSAIQNLPTDQAKVLRMSYFEALSHREISERLDMPLGTVKSCLRLAFQKLRSRIEES | failed
MRITLVTDSTSDLPQDLRGRLGVRVVPLYVNLSGAIYRDWEEITPTEIFQKVREGAAFPTTSQPSPEDFARVYREALEEADHVLSLHISGKLSGTVQSAELAAQEFPGRVTVVDTQAASLGVGMMVLRAKELLEEGQSLEAVLAELERLRRDHFVRFSVATLEFLKRGGRIGGAQAFLGTLLNLKPVLTLKEGRVEAAGRARGEKKAREEILKAFRAWAEGRKRIRAYFLYSGDEDAVAALRQEVLASGLPVEEALVNELGAVIASHTGPGTYGFYAYSL | not failed
MRITRIMKTAKTARTTTSTRTSGARQAAAPLIKFSLFALVTMVATTLLAATIVNISLTPEHTYRAVFSDVTGLEKGDDIRVAGVRVGQVEGIRIKDRTLAEVTFTVGEDRPLLNSTGAVVRYRNLVGQRYVALTEGAGDATRLKPGATIPLSRTQPALDLNALLNGFKPLFAALSPQDVNQLATEIIRTLQGEGGTVNSLLAHTASLTTTLAGRDKLIGSVIDNLNTVLETLDQRGARFSGLLKQLRRVISGLSADRKPIGQSLVGIGDLTDATSGLLKDARPPLKDDIAELTDLTGTLNKNENTVEGVLKRLPNKLGELTGTASYGSWFNFYLCDFDGRIVLPKTKQVLTPELHVARARCGA | failed
